Assay [1] has as its target recombinant extracellular domain of FGFR-2c. In words: SPR (BIACORE 2000), FGF-20 fixed on CM5 chip, receptor extracellular domain as analyte.
The target of assay [2] is recombinant extracellular domain of FGFR-3c. The assay is described as above.

For the substance “Recombinant FGF-20 (from UniProt Q9EST9 1-212) (ligand)”, in assay [1], the dissociation constant (Kd) was 28.1 nM, the koff is 0.0167 s⁻¹ and the association rate constant (kon) came to 595000 M⁻¹ s⁻¹. Besides, in assay [2], the Kd was determined as 217 nM, the dissociation rate constant (koff) was found to be 0.0247 s⁻¹ and the on-rate constant (kon) worked out at 115000 M⁻¹ s⁻¹.

The values above are taken from patent US20060172386A1.
